The values below come from article doi:10.1101/2023.12.14.571518 (bioRxiv, 2023).

The target in one data set is MZT2:GST-GCP2-NHD (human, UniProt Q6P582 1-158; Q9BSJ2 1-110). Description: pull-down.
The data set “cryo-EM structure” deals with the molecule itself. Kind of data set: cryo-EM structure.

Chain of MZT2:GST-GCP2-NHD (Q6P582 whole entry, chain 1 of 2): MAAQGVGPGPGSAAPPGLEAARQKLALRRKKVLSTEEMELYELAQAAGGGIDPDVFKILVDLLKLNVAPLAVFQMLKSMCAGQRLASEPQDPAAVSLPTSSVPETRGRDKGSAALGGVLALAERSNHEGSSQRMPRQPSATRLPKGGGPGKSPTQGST
Chain of MZT2:GST-GCP2-NHD (Q9BSJ2 1-110, chain 2 of 2): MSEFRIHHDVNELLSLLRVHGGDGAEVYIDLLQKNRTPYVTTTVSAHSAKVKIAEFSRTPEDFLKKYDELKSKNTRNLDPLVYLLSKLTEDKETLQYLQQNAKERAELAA

B1: CDK5RAP2(44-93) (domain or fragment, human)
chain: SNIGSGGTPSTGSSLPNVSEETVSPTRARNMKDFENQITELKKENFNLKLRIYFLEERMQQEFH
In the data set with MZT2:GST-GCP2-NHD, B1 registered a Kd not below 10 µM. Turning to TVSPTRARNMKDFENQITELKKENFNLKLRIYFLEERMQQEFHGPTEHIY (domain or fragment, human, UniProt Q96SN8 51-100, looked up) [CDK5RAP2(51-100)], in the data set “cryo-EM structure”, the binding result is on record as “binds”.
